# Experiments:
# hIRF7 promoter = assay: NHR-promoter luciferase screen, hIRF7 promoter; format: cell-based, human; settings: for Normalized Luc. act., normalized to control / Luc. act., normalized to lacZ: IRF7 promoter reporter; for Normalized Luc. act., normalized to control: HR without or with its ligand, relative to control; for Luc. act., normalized to lacZ: hormone receptor (HR) without or with its ligand; for hIRF7 promoter reporter activity: transcription factor +/- ligand, control = 1.00
# Procedure: (§1) The use, feasibility, and reproducibility of the functional NHR-promoter screen in a 48-well format have been tested validated. Briefly, there were co-expressed 50 ng of each NHR/NHR homodimer or NHR/RXR heterodimer with 100 ng promoter/luciferase construct and 50 ng of LacZ (as a control for transfection efficiency) in CV-1 cells using Fugene HD (Roche) as a transfection reagent (alternatively or additionally, a CMV-YFP construct can be used as a transfection control). Each of the nuclear hormone receptors that were used in these experiments was cloned into a pcDNA3.1 vector and comprised a C-terminally linked V5H6 tag. Twenty-four hours after transfection, appropriate ligands were added, where applicable, (see Table 5 for various ligands and concentrations and after 48 hrs, samples were assayed for luciferase and LacZ activity. To measure for luciferase activity 15 ul of sample was added to 30 ul of luciferase buffer (20 mM tricine, 1.07 mM MgCarbonate, 2.67 mM MgSulfate, 0.1 mM Naz-EDTA, 5 mM DTT, 5 mM ATP, 0.15 mg/ml CoA, 0.5 mM Luciferin), mixed briefly, and run in a Perkin Elmer Victor 5 luminometer. Thus, the functional NHR-promoter screen was used to observe the transcriptional activity of 29 promoters from various physiological pathways including inflammation, lipid and sugar metabolism, cholesterol transport, xenobiotic metabolism, and circadian rhythm.
# (§2) The promoters that facilitate transcription of the indicated gene products that were tested using the protocols described herein are listed in the first row of the table. The nuclear hormone receptors and, where applicable, ligands that were assayed for their transcriptional effects on the promoters are listed in the first column of the table. The data represent the luciferase activity of each sample normalized to both the lacZ activity of that sample and to a control, e.g., no NHR or ligand, as customary in the art. As described previously, these normalizations allow the transcriptional activity of each reporter cell to be compared to other samples.
# (§3) Tables 7-40 show the transcriptional effects of the hormone receptors, and, where applicable, ligands (orphan receptors are screened without ligand), on each individual promoter. […] The control data of each table are shown in their last rows.
# hCYP3A4 promoter = assay: NHR-promoter luciferase screen, hCYP3A4 promoter; format: cell-based, human; settings: for Luc. act., normalized to lacZ / Normalized Luc. act., normalized to control: CYP3A4 promoter, HR/ligand component; for hCYP3A4 promoter reporter activity: transcription factor +/- ligand, control = 1.00
# Procedure: Briefly, there were co-expressed 50 ng of each NHR/NHR homodimer or NHR/RXR heterodimer with 100 ng promoter/luciferase construct and 50 ng of LacZ (as a control for transfection efficiency) in CV-1 cells using Fugene HD (Roche) as a transfection reagent (alternatively or additionally, a CMV-YFP construct can be used as a transfection control). Each of the nuclear hormone receptors that were used in these experiments was cloned into a pcDNA3.1 vector and comprised a C-terminally linked V5H6 tag.
# as §2, §3
# mUCP2 promoter = assay: NHR-promoter luciferase screen, mUCP2 promoter; format: cell-based, mouse; settings: for Luc. act., normalized to lacZ / Normalized Luc. act., normalized to control: mUCP2 promoter reporter, co-transfected HR, with or without its ligand; for Normalized Luc. act., normalized to control: relative to control; for luciferase activity normalized to lacZ activity and to a control, mUCP2: mUCP2 promoter-luciferase, CV-1 cells, NHR +/- ligand, control = 1.00
# Procedure: as §1, §2, §3
# mCAR promoter = assay: NHR-promoter luciferase screen, mCAR promoter; format: cell-based, mouse; settings: for luciferase activity normalized to lacZ activity and to a control, mCAR: mCAR promoter-luciferase, CV-1 cells, NHR +/- ligand, control = 1.00; for Luc. act., normalized to lacZ / Normalized Luc. act., normalized to control: mCAR promoter, HR/ligand component
# Procedure: as §1, §2, §3
# mLeptin promoter = assay: NHR-promoter luciferase screen, mLeptin promoter; format: cell-based, mouse; settings: for Luc. act., normalized to lacZ / Normalized Luc. act., normalized to control: Table 7, mLeptin; for Results of assays of transcription factor (+/- ligand) with mLeptin: Table 6d, luciferase activity relative to control (control = 1.00)
# Procedure: as §1, §2, §3
# mPOMC promoter = assay: NHR-promoter luciferase screen, mPOMC promoter; format: cell-based, mouse; settings: for Results of assays of transcription factor (+/- ligand) with mPOMC: Table 6d, luciferase activity relative to control (control = 1.00); for Luc. act., normalized to lacZ / Normalized Luc. act., normalized to control: mPOMC promoter, HR component with or without ligand; for Normalized Luc. act., normalized to control: relative to control
# Procedure: as §1, §2, §3
Molecule,"Normalized Luc. act., normalized to control (hIRF7 promoter)","Luc. act., normalized to lacZ (hIRF7 promoter)",hIRF7 promoter reporter activity (hIRF7 promoter),"Luc. act., normalized to lacZ (hCYP3A4 promoter)","Normalized Luc. act., normalized to control (hCYP3A4 promoter)",hCYP3A4 promoter reporter activity (hCYP3A4 promoter),"Luc. act., normalized to lacZ (mUCP2 promoter)","Normalized Luc. act., normalized to control (mUCP2 promoter)","luciferase activity normalized to lacZ activity and to a control, mUCP2 (mUCP2 promoter)","luciferase activity normalized to lacZ activity and to a control, mCAR (mCAR promoter)","Luc. act., normalized to lacZ (mCAR promoter)","Normalized Luc. act., normalized to control (mCAR promoter)","Luc. act., normalized to lacZ (mLeptin promoter)","Normalized Luc. act., normalized to control (mLeptin promoter)",Results of assays of transcription factor (+/- ligand) with mLeptin (mLeptin promoter),Results of assays of transcription factor (+/- ligand) with mPOMC (mPOMC promoter),"Luc. act., normalized to lacZ (mPOMC promoter)","Normalized Luc. act., normalized to control (mPOMC promoter)"
"RORg: RAR-related Orphan Receptor γ (NR1F3), cDNA driver (protein, UniProt P51449 1-518, looked up) Nuclear receptor ROR-gamma: MDRAPQRQHRASRELLAAKKTHTSQIEVIPCKICGDKSSGIHYGVITCEGCKGFFRRSQRCNAAYSCTRQQNCPIDRTSRNRCQHCRLQKCLALGMSRDAVKFGRMSKKQRDSLHAEVQKQLQQRQQQQQEPVVKTPPAGAQGADTLTYTLGLPDGQLPLGSSPDLPEASACPPGLLKASGSGPSYSNNLAKAGLNGASCHLEYSPERGKAEGRESFYSTGSQLTPDRCGLRFEEHRHPGLGELGQGPDSYGSPSFRSTPEAPYASLTEIEHLVQSVCKSYRETCQLRLEDLLRQRSNIFSREEVTGYQRKSMWEMWERCAHHLTEAIQYVVEFAKRLSGFMELCQNDQIVLLKAGAMEVVLVRMCRAYNADNRTVFFEGKYGGMELFRALGCSELISSIFDFSHSLSALHFSEDEIALYTALVLINAHRPGLQEKRKVEQLQYNLELAFHHHLCKTHRQSILAKLPPKGKLRSLCSQHVERLQIFQHLHPIVVQAAFPPLYKELFSTETESPVGLSK",1.7,44.4,1.69,3.4,0.8,0.76,169.5,1.5,1.54,1.13,43.1,1.1,2.6,0.9,0.87,1.30,89.5,1.3
"RVRa: Rev-Erb α (NR1D1), cDNA driver (protein, UniProt P20393 1-614, looked up) Nuclear receptor subfamily 1 …: MTTLDSNNNTGGVITYIGSSGSSPSRTSPESLYSDNSNGSFQSLTQGCPTYFPPSPTGSLTQDPARSFGSIPPSLSDDGSPSSSSSSSSSSSSFYNGSPPGSLQVAMEDSSRVSPSKSTSNITKLNGMVLLCKVCGDVASGFHYGVHACEGCKGFFRRSIQQNIQYKRCLKNENCSIVRINRNRCQQCRFKKCLSVGMSRDAVRFGRIPKREKQRMLAEMQSAMNLANNQLSSQCPLETSPTQHPTPGPMGPSPPPAPVPSPLVGFSQFPQQLTPPRSPSPEPTVEDVISQVARAHREIFTYAHDKLGSSPGNFNANHASGSPPATTPHRWENQGCPPAPNDNNTLAAQRHNEALNGLRQAPSSYPPTWPPGPAHHSCHQSNSNGHRLCPTHVYAAPEGKAPANSPRQGNSKNVLLACPMNMYPHGRSGRTVQEIWEDFSMSFTPAVREVVEFAKHIPGFRDLSQHDQVTLLKAGTFEVLMVRFASLFNVKDQTVMFLSRTTYSLQELGAMGMGDLLSAMFDFSEKLNSLALTEEELGLFTAVVLVSADRSGMENSASVEQLQETLLRALRALVLKNRPLETSRFTKLLLKLPDLRTLNNMHSEKLLSFRVDAQ",1.2,32.6,1.24,2.2,0.5,0.50,143.0,1.3,1.30,0.89,34.0,0.9,2.5,0.9,0.86,1.13,77.9,1.1
"LXRb: Liver X Receptor β (NR1H2), cDNA driver (protein, UniProt P55055 1-460, looked up) Oxysterols receptor LXR-beta: MSSPTTSSLDTPLPGNGPPQPGAPSSSPTVKEEGPEPWPGGPDPDVPGTDEASSACSTDWVIPDPEEEPERKRKKGPAPKMLGHELCRVCGDKASGFHYNVLSCEGCKGFFRRSVVRGGARRYACRGGGTCQMDAFMRRKCQQCRLRKCKEAGMREQCVLSEEQIRKKKIRKQQQESQSQSQSPVGPQGSSSSASGPGASPGGSEAGSQGSGEGEGVQLTAAQELMIQQLVAAQLQCNKRSFSDQPKVTPWPLGADPQSRDARQQRFAHFTELAIISVQEIVDFAKQVPGFLQLGREDQIALLKASTIEIMLLETARRYNHETECITFLKDFTYSKDDFHRAGLQVEFINPIFEFSRAMRRLGLDDAEYALLIAINIFSADRPNVQEPGRVEALQQPYVEALLSYTRIKRPQDQLRFPRMLMKLVSLRTLSSVHSEQVFALRLQDKKLPPLLSEIWDVHE",1.7,45.1,1.71,4.8,1.1,1.08,170.7,1.6,1.55,0.92,34.9,0.9,2.4,0.8,0.81,0.88,60.8,0.9
"RORa: RAR-related Orphan Receptor α (NR1F1), cDNA driver (protein, UniProt P35398 1-523, looked up) Nuclear receptor ROR-alpha: MESAPAAPDPAASEPGSSGADAAAGSRETPLNQESARKSEPPAPVRRQSYSSTSRGISVTKKTHTSQIEIIPCKICGDKSSGIHYGVITCEGCKGFFRRSQQSNATYSCPRQKNCLIDRTSRNRCQHCRLQKCLAVGMSRDAVKFGRMSKKQRDSLYAEVQKHRMQQQQRDHQQQPGEAEPLTPTYNISANGLTELHDDLSNYIDGHTPEGSKADSAVSSFYLDIQPSPDQSGLDINGIKPEPICDYTPASGFFPYCSFTNGETSPTVSMAELEHLAQNISKSHLETCQYLREELQQITWQTFLQEEIENYQNKQREVMWQLCAIKITEAIQYVVEFAKRIDGFMELCQNDQIVLLKAGSLEVVFIRMCRAFDSQNNTVYFDGKYASPDVFKSLGCEDFISFVFEFGKSLCSMHLTEDEIALFSAFVLMSADRSWLQEKVKIEKLQQKIQLALQHVLQKNHREDGILTKLICKVSTLRALCGRHTEKLMAFKAIYPDIVRLHFPPLYKELFTSEFEPAMQIDG",1.5,39.9,1.51,1.6,0.4,0.36,104.0,0.9,0.95,0.55,20.9,0.5,2.1,0.7,0.71,2.08,143.4,2.1

# Source: US20110263454A1, “Methods of Identifying Functional Characteristics of Promoters, Transcription Modifying Proteins and Transcription Modulating Agents” (Salk Institute for Biological Studies, priority 2008, published 2011)
